The values below come from article PMC11162790.

The series deals with ArsR-P (phosphorylated His6-ArsR) (Helicobacter pylori SMI109). In words: EMSA. The note with it: Buffer F: 50 mM Tris-acetate pH 7.5, 100 mM K-glutamate, 20 mM Mg-acetate, 5% glycerol, 0.1 ug poly dI-dC, 25 C, 30 min; EMSA 5-7 nM DNA, footprint 25 nM DNA.

PsabA SMI109 (T13, wt) 407 bp yielded a K half of 1350 nM.
